Substitutions are numbered along the chain they refer to. Names may count otherwise.

This test relates to transducin. The test is described as follows: transducin activation by designed opsin mutants (constitutive and light-induced activity). In kind it is biochemical. The conditions noted are these: data not shown.

B1: M257Y.I305A: opsin (rhodopsin) double mutant, M257Y on TMH6 and I305A on TMH7 (protein, UniProt P02699 1-348, looked up, variant M257Y I305A)
Rhodopsin: MNGTEGPNFYVPFSNKTGVVRSPFEAPQYYLAEPWQFSMLAAYMFLLIMLGFPINFLTLYVTVQHKKLRTPLNYILLNLAVADLFMVFGGFTTTLYTSLHGYFVFGPTGCNLEGFFATLGGEIALWSLVVLAIERYVVVCKPMSNFRFGENHAIMGVAFTWVMALACAAPPLVGWSRYIPEGMQCSCGIDYYTPHEETNNESFVIYMFVVHFIIPLIVIFFCYGQLVFTVKEAAAQQQESATTQKAEKEVTRMVIIYVIAFLICWLPYAGVAFYIFTHQGSDFGPIFMTIPAFFAKTSAVYNPVAYIMMNKQFRNCMVTTLCCGKNPLGDDEASTTVSKTETSQVAPA
As to B1, the “constitutive activity compared to WT opsin” value is reported as “much larger”. In addition, the “rate of transducin activation” value (compared to M257Y alone) is listed as “higher”.

B2: K231E.E232I.T251R: opsin (rhodopsin) ICL3 triple mutant (protein, UniProt P02699 1-348, looked up, variant K231E E232I T251R)
Rhodopsin: B1 Rhodopsin with K231E, E232I, T251R, Y257M, A305I
As for B2, the “constitutive activity as share of the light-induced maximal activity” value is given as “higher than 40%” and the “constitutive activity compared to WT opsin” value is “dramatically increased”.

B3: M257Y: opsin (rhodopsin) mutant, M257Y on TMH6 (protein, UniProt P02699 1-348, looked up, variant M257Y)
Rhodopsin: B1 Rhodopsin with A305I
With B3, the “constitutive activity compared to WT opsin” value is “much larger”.

These data come from patent US20230227534A1, “METHOD FOR GENERATING VARIANTS OF A PROTEIN” (ECOLE POLYTECHNIQUE FEDERALE DE LAUSANNE (EPFL), priority 2019, published 2023).
